{
  "source": "the DeepSol protein solubility set",
  "test": "soluble on expression in E. coli; label from the status in PepcDB or PDB records",
  "data": [
    {"sequence": "MTSTKAYVLALAGCTNSGKSTLAKEFQRFFGAGETTIINQDEFYKTENEVEKIYHPDAEHLTDEGYYWSFDEKEAINIDQFRQRILNESKVYKNVIIDGNMITEMDEIVDLCDRIVVMTLDFKTCKRRREARTDYVPADTPGYFVNVAFPAYVRHLERARQRSRTDSRLTFIDVSESKFDDKNKSIVNFRQQILDDHIKLTDEVIDVKVVDQLVSHPSCGAISTFNGVTRDNHGGRDVSNLSYDCHDLMAYKKLRGICAEIRAEYPDVKKIAIFHRLGKVDIGESSVIISTSSPHRKTAIQATEKCIDLLKEHAPIFKYEEYSNGEVDGVWKSNIEDSKQ", "values": [
      {"measurement": "soluble on expression in E. coli", "result": "not soluble"}
    ]},
    {"sequence": "MPAILSRVAPRTFNLVGSRLMASAARLETVPREEIHKEYDRKKTFYHRDLEIQLAGPTQLKTKPLDPTKLKFGHTYADYMMTCDWDAERGWHHPKIEPIGELKIHPGAKVLHYASELFEGMKAYRGIDNKIRMFRPEMNMARMKRTALRAALPDFDSEEMINVLTELLRLDQEWVPNSDVCSLYLRPTLIGTDPTLGVGCATEAKMFVITGPVGAYYSTGFQPVSLLADSRFIRAFPGGVGAYKMGCNYAPTIWVGKEAASKNCQQVLWLYGENEDLTEVGTMNIFLFWKNEEGDMELITPPLHRGLILPGVTRDSLLELGREWGEYKVTERTLNMEEVKKALSEKRLYEMFGSGTACVVSPVGKILYHNKVTDEYEELHIPTMSSKFGVMQKFYNTINDIQYGRIIKDGWMRDI", "values": [
      {"measurement": "soluble on expression in E. coli", "result": "not soluble"}
    ]},
    {"sequence": "MIGNILVAHGMRKGNQNEALEEFIGTLLKDEQYYYELAFLESETQNLEIIMEKMIKQGITKFRIVPLLIFSAMHYISDIPQILKEMKARYPQIDSKMSAPLGTHPYMKTLVENRIAEEKVSEGSTKATIVIAHGNGSGRFTKAHDELKAFVKTLDSHHPVYARALYGTLAFKNDLDKISEQYDELVIVPLFLFDGRLVNKVKRLLGEMTLHSQLHITPSINFDPILRLIIRERLEALDILEHHHHHH", "values": [
      {"measurement": "soluble on expression in E. coli", "result": "soluble"}
    ]},
    {"sequence": "GMSDPAGKPCIICVAITGSLPTKENNPAVPITLAEQVESTHEAFEAGASIAHCHVRDDEGRPTSDPDRFAALKEGLERHCPGMIVQLSTGGRSGAGQARGAMLPLCPDMASLSVGSNNFPTRVYENPPDLVDWLAAEMLKYDIKPEIEAFDLSHILQAKRMAGDGRLAGTPYVQFVMGVRNAMPADRDVFDYYIHTVRRLFGEDAPWCAAGIGPSQIVLNEWAISSGGHARTGLEDNVRLDRDRLAPSNAALVGRAVELCEKYERPVATWRQARQILGLRMV", "values": [
      {"measurement": "soluble on expression in E. coli", "result": "soluble"}
    ]},
    {"sequence": "MGSDKIHHHHHHMTIYSWNALYLGNAGDIDSYEGDLYAEGASNILGSYGSPGDPLYDHIVDVVVNDADDDTDINSDNYDFWSPDAMTVDGVAHTLDSGVVYNATLTYADGSTANITAVVIQTTDGDLYLAPEMTANDDWVAMEAKAIVSVSLDSVSVDTTYIAANRQQTNFICFAAGTRIATPKGARPVETLAVGDLVQTLDHGPQPIRWIGTRRVGLATQLLSHGVAPVVIPAHSFAPSIPTHPLLLSQQHRVLLRSRIARRMYGSDEILIAARRLTGLHGIALRPATGPVRYIHFALDRHEIVFANGLPAETLLLGAEVERVLGTDVFTQIEQSQNRGAIALAMRPARPIVEGRRARSFVERLRNRACRHALANPIKVPQNRVTGLISLVSPPG", "values": [
      {"measurement": "soluble on expression in E. coli", "result": "not soluble"}
    ]},
    {"sequence": "MLRISELKLPLDHTQEELADAVAGFLKAPADEVRGFTVFKRSYDARKGVMSLVYIIDVDVANEDKLFARFKGDRRVMPTPDTHYYYVAQAPESLKSRPVVVGFGPCGIFAALILAQMGFKPIVLERGKEVRQRTKDTWGLWRKSELNTESNVQYGEGGAGTFSDGKLYSQIKDPRHLGRKVLTEFVKAGAPEEILYLARPHIGTFRLVSMVENMRAEIIALGGEIRFEQRVDDLILDGDRVRGVKLADGGEVLSDHVVLALGHSARDTFQMLEKRGVYMEAKPFSVGVRIEHPQSLIDAARWGKYAGHPILGAADYKLVHHAGNGRAVYSFCMCPGGTVVAATSEEKRVVTNGMSQYSRNERNANSGFVVSISPEVDYPGGPLAGLDFQRELESKAYELGGGDYFAPAQLLGDFMAGKASTQLGSVEPSYKPGVTMTDLARILPDFCVEAMREAIPHFARQIRGYDLHDAVLTGLETRTSSPLRITRGEDFQSLNIKGLFPAGEGAGYAGGILSAGVDGIKVAEAVAKAMLGQLEHHHHHH", "values": [
      {"measurement": "soluble on expression in E. coli", "result": "soluble"}
    ]},
    {"sequence": "PYHGKSKPNKETFVCDLKTSLSNEAIGYIGKANTVGILLSGGMDSRVVAGVVRDLQKNNRSISVVGITWGNANSRDVIYSQRICQQFGWEFVHFPITAETLHKNIQLSAKMGAEVSALHFHAMSDVADLKGVDVILAGSYGDSVGRAEFSGKHVTKLSSVLPSRINNLGLIKDELFQSALESIRNDAQLPAFHNAGDNNLRKYEIEQECHYMRRMLQSCMHVVAEKIPFYQMFTAPSVFGLMWGLEPNIRNNDWYVELLNILPGQLLQIPWARTGILYHLPEGTADEFDKSYHQYGLWLKTELKDEMLNAMNSKSIRELGIFN", "values": [
      {"measurement": "soluble on expression in E. coli", "result": "not soluble"}
    ]},
    {"sequence": "MGSDKIHHHHHHMRNLDITTLRSFVAVADTGGVTRAASFLHLTQSAVSMQLKRLEEMLGVELLDRSGRNIGLTSAGEQLLGFARKMLSLNDEIITRLTDQAFEGEVTLGVPHDVVHPVIPMVMQRFNVQFPRVKVNLCTSNTRDLKMDFAQGRFDLIVTTETTASEGGEVIHQMPLRWIGALGGQTWRQRPLRIGFCRNCIFRGLATAALDDAGIPWEMAVDSESDRTVEATVSADLAVGVLLEGTQPAHQQVIDHGGSLPQLPVQHINLYGAERSRAQYVDHLASLIRQGFAGLSQPGLRAVGTEMVSAPVQLGVV", "values": [
      {"measurement": "soluble on expression in E. coli", "result": "not soluble"}
    ]},
    {"sequence": "MRYLIATAVLVAVVLVGWPAAGAPPSCAGLGGTVQAGQICHVHASGPKYMLDMTFPVDYPDQQALTDYITQNRDGFVNVAQGSPLRDQPYQMDATSEQHSSGQPPQATRSVVLKFFQDLGGAHPSTWYKAFNYNLATSQPITFDTLFVPGTTPLDSIYPIVQRELARQTGFGAAILPSTGLDPAHYQNFAITDDSLIFYFAQGELLPSFVGACQAQVPRSAIPPLAI", "values": [
      {"measurement": "soluble on expression in E. coli", "result": "soluble"}
    ]},
    {"sequence": "MSLNNVKLLIAGSAFFAMSAQAADRVSIDVKVTLEAAACTPILSNGGVVNFGSHSVNRLSTQHYTQIGTRNINMTITCESATGIAITARDTRMDSMTTGKDSGGQSGVKYTLNGGGYISQTTRLFGLGKTKDNKNIGSYAVLIDSNNISASNGSQTLAVSIAGADAVITGQKRAWQTLTAYPLAVDQSYYYTFVKPGETTPTPVTNAIIPLQVSASIANDLGGSEKIELDGKAVISVVYLEGHHHHHH", "values": [
      {"measurement": "soluble on expression in E. coli", "result": "not soluble"}
    ]},
    {"sequence": "MSLNPASPFATLTDRIDWQKVDGLVPAIVQDFQSSQVLMMGYMNPEALQKTLDTQQVTFFSRSKQRLWTKGETSGHVLQLKNIALDCDQDTLLVKVNPIGPTCHTGTVTCWDGDAQEESQMVWLHQLEQLLAERKNADPSSSYTASLYARGTKRIAQKVGEEGVEVALAATAGDKEELICESADLMYHLLVLLQEQGLAMNDVINKLKERHKEGHHHHHH", "values": [
      {"measurement": "soluble on expression in E. coli", "result": "soluble"}
    ]},
    {"sequence": "MSLRILITGNMGYIGPVVARHLRQQYPDAWLVGLDRGWFAHCLSDPRQLPEVVLDQQWFGDVRDLTAQQLSGFDGVVHLAAISNDAMGKRFEQVTDAINCRASVAVAQAAAQAGVKHFVFASSCSVYGAAADGTPRSESSAVAPLTAYAHSKIDTERALAQLETDMVITCLRFATACGASPRLRLDLVLNDFVASAVANGTVEVLSDGSPWRPLIHVRDMARAIDWALGRTPLAGGRFLAVNAGAEQWNVQIRDLAQAVGAAMPSATVSISTTAPADNRSYRVDFSLFQRLAPQHQPQQTLQSTITELRDDLLRAGFADGDFRQSSDFIRLRILQQLVDSGALAADLRAEGHHHHHH", "values": [
      {"measurement": "soluble on expression in E. coli", "result": "soluble"}
    ]},
    {"sequence": "MGSDKIHHHHHHMAEAGTLAVLVPEITIEELFTAQGADLSRRSPRQDMVDLNIKLLAEARELAKVSIIWQEVKVLGSQQQELYLEGGLTLRGSLLPKVLGPAESAVLFAMTIGEGIDERVKEYTHQGKTLEAFILDAAGSAILAKAAYHAISELAGLYKEKQLDTTFSLGPGHSYWKGLEDVRTIIDYLKGEQIGISLTDSNLMLPKKSIAMVMGVGSNLPDFKGKTHCDFCHLKGSCTMRELGVNNC", "values": [
      {"measurement": "soluble on expression in E. coli", "result": "not soluble"}
    ]},
    {"sequence": "MPYTFENSEALLKNLKDAAPYISAAERFASFKGFVYDKRINIACTSEKLARAGFYSTASPEFPASAKCPFCMLEINFEQCDDPWEKHKSGSPHCEFVMIGEIEESELSFRIISNLAIRHATVRLYEELLGIVATLENGDIANENPITRADATRKLISFRSSSKLLTFDHRLATFQNFIFDKKRNVKCTSKKLAKAGWFSIANKKDKTSAKCPFCLVELDFDESDDPWEEHQKFSASCDFIKLGKLDEKKWTENEALMLGARITIMQKYEKGSWLIDELEKENRIDEIIKIRKIMIKPNHVLKRRRCSI", "values": [
      {"measurement": "soluble on expression in E. coli", "result": "not soluble"}
    ]}
  ]
}
